According to the supplement of paper PMC7877785:
± gives the uncertainty stated by the source.

Test: self-splicing fitness, log relative to wild type (ln ratio); higher = more splicing; Tetrahymena group I intron in knt gene, E. coli kanamycin selection, DiMSum; sequences stand for … in CUCUCU…GGAGGGAAAAGUUAUCAGGCAUGCACCUGGUAGCUAGUCUUUAAACCAAUAGAUUGCAUCGGUUUAAAAGGCAAGACCGUCAAAUUGCGGGAAAGGGGUCAACAGCCGUUCAGUACCAAGUCUCAGGGGAAACUUUGAGAUGGCCUUGCAAAGGGUAUGGUAAUAAGCUGACGGACAUGGUCCUAACCACGCAGCCAAGUCCUAAGUCAACAGAUCUUCUGUUGAUAUGGAUGCAGUUCACAGACUAAAUGUCGGUCGGGGAAGAUGUAUUCUUCUCAUAAGAUAUAGUCGGACCUCUCCUUAAUGGGAGCUAGCGGAUGAAGUGAUGCAACACUGGAGCCGCUGGGAACUAAUUUGUAUGCGAAAGUAUAUUGAUUAGUUUUGGAGUACUCGUGGUCG
Method in brief: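 Six replicate transformations of E. coli BL21(DE3) with a pET-22b(+) library were grown overnight at 37°C or 30°C. The library randomised all eight P1ex-region intron nucleotides, the intron lying in the knt kanamycin-resistance gene, and plates were LB agar with or without 25 μg/mL kanamycin plus 100 μg/mL carbenicillin, 50 μM IPTG and 0.2% rhamnose. Pooled colonies were amplicon-sequenced on an Illumina HiSeq 2500, and fitness is the DiMSum error-weighted combination of wild-type-normalised replicate fold changes, kanamycin versus none.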

Sequence	self-splicing fitness (ln) (30 °C)	self-splicing fitness (ln) (37 °C)
UACAAGCAAUAUUACGAUAA	-1.93 ± 0.13	-0.276 ± 0.12
UCAAAGCAAUAUUACGCCAC	-2.5 ± 0.24	-2.07 ± 0.38
AUCUAGCAAUAUUACGUCAC	-4.04 ± 0.26	-2.11 ± 0.2
GCACAGCAAUAUUACGUUUU	-1.14 ± 0.046	-0.268 ± 0.065
CAAUAGCAAUAUUACGACGC	-2.73 ± 0.19	-0.616 ± 0.17
CCCGAGCAAUAUUACGACUU	-3.24 ± 0.26	-3.01 ± 0.25
UCUAAGCAAUAUUACGAAGC	-1.05 ± 0.39	-1.8 ± 0.36
ACUGAGCAAUAUUACGUUCA	-3.87 ± 0.28	-1.55 ± 0.2
AACAAGCAAUAUUACGGUAG	-3.81 ± 0.2	-2.22 ± 0.13
ACAGAGCAAUAUUACGUUCU	-3.89 ± 0.26	-3.29 ± 0.29
CGAGAGCAAUAUUACGCAUA	-2.12 ± 0.44	-1.44 ± 0.49
AGAUAGCAAUAUUACGCAAG	-2.2 ± 0.15	-0.0746 ± 0.16
CAUAAGCAAUAUUACGUUUU	-4.55 ± 0.22	-2.54 ± 0.15
CCUAAGCAAUAUUACGGGGC	-2.45 ± 0.2	-2.61 ± 0.22
CCCAAGCAAUAUUACGUCCU	-3.99 ± 0.3	-2.93 ± 0.29
UGACAGCAAUAUUACGAGGC	-2.35 ± 0.23	-2.95 ± 0.43
GUUAAGCAAUAUUACGCCGG	–	-0.148 ± 0.27
GCUCAGCAAUAUUACGGCAA	-1.98 ± 0.16	-1.1 ± 0.17
GGGUAGCAAUAUUACGUGUA	-0.214 ± 0.12	-0.897 ± 0.14
AGAAAGCAAUAUUACGCCUA	-1.36 ± 0.14	-1.04 ± 0.17
ACACAGCAAUAUUACGUUAC	-3.18 ± 0.15	-2.14 ± 0.17
AGAAAGCAAUAUUACGCAGC	-2.92 ± 0.2	-2.33 ± 0.2
UUGAAGCAAUAUUACGAAUG	-0.746 ± 0.081	-0.263 ± 0.11
CGCCAGCAAUAUUACGGCAA	-0.604 ± 0.087	-0.186 ± 0.088

Sequence	self-splicing fitness (ln) (30 °C)	self-splicing fitness (ln) (37 °C)
UCGUAGCAAUAUUACGGAUU	-2.08 ± 0.14	-2.85 ± 0.23
UCACAGCAAUAUUACGCAGA	-2.54 ± 0.12	-2.16 ± 0.14
CUGCAGCAAUAUUACGAGGG	-4.19 ± 0.24	-1.95 ± 0.17
ACGGAGCAAUAUUACGCAGG	-1.72 ± 0.15	-2.41 ± 0.35
AUAUAGCAAUAUUACGUUGG	-4.08 ± 0.42	-2.04 ± 0.26
CCACAGCAAUAUUACGCGAG	-1.27 ± 0.076	-0.902 ± 0.083
CACCAGCAAUAUUACGAUGG	-1.58 ± 0.06	-0.874 ± 0.079
CCUCAGCAAUAUUACGCUUU	-3.07 ± 0.14	-2.79 ± 0.21
GUACAGCAAUAUUACGCAGU	-4.74 ± 0.31	-3 ± 0.24
CCCCAGCAAUAUUACGACGU	-3.45 ± 0.21	-2.9 ± 0.19
UCAAAGCAAUAUUACGCCCG	-1.66 ± 0.2	-0.884 ± 0.27
UUAAAGCAAUAUUACGUGCU	-1.16 ± 0.082	-0.057 ± 0.12
GCCUAGCAAUAUUACGGUAA	-0.151 ± 0.079	-0.546 ± 0.075
CAGCAGCAAUAUUACGGCAG	-0.983 ± 0.079	-0.261 ± 0.11
UCGAAGCAAUAUUACGGGUC	-4.14 ± 0.33	-2.54 ± 0.44
CAAUAGCAAUAUUACGUUCU	-4.4 ± 0.43	–
GUCAAGCAAUAUUACGCCAG	-4.54 ± 0.28	-3.95 ± 0.33
AGUGAGCAAUAUUACGCACA	-1.35 ± 0.1	-0.91 ± 0.13
GGAGAGCAAUAUUACGACAU	-2.642 ± 0.022	-1.55 ± 0.037
GAGGAGCAAUAUUACGUAAG	-3.04 ± 0.27	-2.13 ± 0.34
UAUUAGCAAUAUUACGCGCG	-0.142 ± 0.17	-0.528 ± 0.17
AGAUAGCAAUAUUACGUUCU	-2.38 ± 0.14	-2.02 ± 0.17
GCAUAGCAAUAUUACGACAC	0.147 ± 0.14	-0.214 ± 0.19
AGUCAGCAAUAUUACGGCUU	–	-1.91 ± 0.29
